Patent US20250136696A1 (HARBOUR BIOMED SHANGHAI, published 2025)
Positions count from the first letter of the chain named. Names and notes keep the numbering of the source.

T1: human B7-H7 on the cell surface (human, UniProt Q9UM44 23-414)
T1 construct: whole, on cells; also called hB7-H7; hu B7-H7
T1 sequence (looked up): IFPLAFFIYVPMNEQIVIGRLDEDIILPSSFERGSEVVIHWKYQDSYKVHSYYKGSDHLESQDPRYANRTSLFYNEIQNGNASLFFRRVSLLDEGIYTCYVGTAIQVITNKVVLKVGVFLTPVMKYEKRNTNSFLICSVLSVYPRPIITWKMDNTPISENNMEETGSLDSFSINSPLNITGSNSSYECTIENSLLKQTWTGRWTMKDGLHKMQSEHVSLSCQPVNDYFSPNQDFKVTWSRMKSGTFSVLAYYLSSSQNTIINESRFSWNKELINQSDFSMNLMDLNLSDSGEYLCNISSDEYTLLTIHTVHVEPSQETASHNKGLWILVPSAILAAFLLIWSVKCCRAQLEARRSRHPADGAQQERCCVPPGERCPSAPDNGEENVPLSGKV

T2: human B7-H7 recombinant protein (human, UniProt Q9UM44 23-344)
T2 construct: also called human B7-H7 protein
T2 sequence (looked up): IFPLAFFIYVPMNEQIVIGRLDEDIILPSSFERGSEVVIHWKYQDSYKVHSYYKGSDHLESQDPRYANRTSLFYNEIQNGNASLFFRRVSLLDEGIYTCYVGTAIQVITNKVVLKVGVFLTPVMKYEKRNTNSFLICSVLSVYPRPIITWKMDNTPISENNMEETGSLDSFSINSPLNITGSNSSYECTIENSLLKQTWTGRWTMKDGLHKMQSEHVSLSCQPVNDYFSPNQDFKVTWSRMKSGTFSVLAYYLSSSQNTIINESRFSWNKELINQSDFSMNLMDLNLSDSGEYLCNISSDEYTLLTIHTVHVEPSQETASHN

T3: biotinylated human B7-H7 protein (Acro Biosystems, B77-H82F5) (human, UniProt Q9UM44 23-344, biotinylated)
T3 construct: Bought soluble protein; also called biotin-B7H7 protein
T3 sequence (looked up): T2 sequence (looked up)

B1: PR003250 (antibody, human IgG1, kappa, V domains shown)
VH: QVQLVESGGGVVQPGRSLRLSCAASGFTFSDYGIHWVRQAPGKGLEWVAVIWYDGSDKYYADSVRGRFTISRDNSKNTLSLQMNSLRAEDTAVYYCARDRSSGAMGYFAYWGQGTLVTVSS
VL: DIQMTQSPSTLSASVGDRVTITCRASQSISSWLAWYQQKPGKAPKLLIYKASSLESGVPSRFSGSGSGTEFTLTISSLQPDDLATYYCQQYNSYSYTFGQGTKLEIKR
notes: Human IgG1; also called 34G2E6
B2: PR003248 (antibody, human IgG1, kappa, V domains shown)
VH: QVQLVESGGGVVQPGRSLRLSCAASGFTFSDYGLHWVRQAPGRGLEWVAVIWYDGSEEYYADSVKGRFTISRDNSKKSLYLQMNSLRAEDTAVYFCARDRNSGALGYFPHWGQGTLVTVSS
VL: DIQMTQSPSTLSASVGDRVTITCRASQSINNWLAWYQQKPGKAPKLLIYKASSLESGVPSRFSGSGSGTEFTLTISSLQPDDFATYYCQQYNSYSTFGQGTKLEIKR
notes: Human IgG1, fully human, from Harbour H2L2 mice; also called 13D8D2
B3: PR003266 (antibody, human IgG1, kappa, V domains shown)
VH: B1 VH with I34M, V50I, D57N, R65K, S80Y, M105L, A109Q, Y110H
VL: not shown
notes: Human IgG1; also called 7D3D2
B4: PR003265 (antibody, human IgG1, kappa, V domains shown)
VH: QVQLVESGGGVVQPGRSLRLSCAASGFTFSTYGLHWVRQAPGKGLEWVAVIWYDESNEYYADSVKGRFTISRDNSKNTLYLQMNSLRAEDTALYYCARLAHDYGGTYFDYWGQGTLVTVSS
VL: EIVMTQSPAILSVSPGERATLSCRASQSISYNLAWYQQKPGQAPRLLIYGASIRATGIPARFSGSGSGTDFTLTISSLQSEDFAVYYCQQYNNWPPWTFGQGTKVEIKR
notes: Human IgG1; also called 78G8B3
B5: PR003261 (antibody, human IgG1, kappa, V domains shown)
VH: QVQLVESGGGVVQPGRSLRLSCAASGFTFSNYGMHWVRQAPGKGLEWVAVIWYDGTNKNYADSVKGRFTISRDNSKNTLDLQMNSLRAEDTAVYFCARDRNTAMDYFVYWGQGTLVTVSS
VL: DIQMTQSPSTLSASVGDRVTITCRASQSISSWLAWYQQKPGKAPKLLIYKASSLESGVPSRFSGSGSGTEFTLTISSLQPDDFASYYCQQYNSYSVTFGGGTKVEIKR
notes: Human IgG1; also called 74A11E4
B6: PR003252 (antibody, human IgG1, kappa, V domains shown)
VH: QVQLVESGGGVVQPGRSLRLSCAASGFTFSNYAMHWVRQVPGKGLEWVALIWYDGSEKYYADSVKGRFTISRDDSKNTLFLQMSSLRAEDTAVYSCVREYSSGWGYFDYWGQGTQVTVSS
VL: DIQMTQSPSTLSASVGDRVTITCRASQSISSWLAWYQQKPGKAPKLLIYKASSLKSGVPSRFSGSGSGTEFTLTISSLQPDDFATYYCLQYNSYYTFGQGTKLEIKR
notes: Human IgG1; also called 53C12D4
B7: PR004479 (antibody, human IgG1, kappa, L234A L235A, V domains shown)
VH: B1 VH with D54E, A88V, A109V
VL: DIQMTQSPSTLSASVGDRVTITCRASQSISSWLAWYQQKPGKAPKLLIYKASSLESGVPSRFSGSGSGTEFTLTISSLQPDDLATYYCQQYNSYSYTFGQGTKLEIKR
notes: Variant of PR003249, H:D54E; Human IgG1 LALA; expressed supernatant only

biological target: T1, human B7-H7 on the cell surface; assay: flow cytometry, HEK-293/hu B7-H7 cells
Procedure: (§1) This example was intended to study the in vitro activity of H2L2 monoclonal antibodies against human B7-H7 in binding to human/cynomolgus monkey B7-H7. Since homologous molecules of B7-H7 were not present in mice, the detection was not performed. […] The cells were adjusted to a cell density of 1×10⁶ cells/mL, respectively. The cells were seeded in a 96-well V-bottom plate (Corning, #3894) at 100 μL/well, and the antibody to be tested at 2× final concentration with 3-fold concentration gradient dilution was then added at 100 μL/well. The cells were incubated at 4° C. for 2 hours in the dark. After the incubation, the cells were rinsed twice by adding pre-chilled PBS containing 2% BSA at 100 μl/well, and centrifuged at 500 g at 4° C. for 5 minutes, and the supernatant was discarded. […] The cells were washed twice by adding pre-chilled PBS containing 2% BSA at 100 μL/well, and centrifuged at 500 g at 4° C. for 5 minutes, and the supernatant was discarded. Finally, the cells were resuspended in pre-chilled PBS containing 2% BSA at 200 μL/well, and the fluorescence signal values were read using an ACEA Novocyte3000 flow cytometer.

EC50 [nM]	Maximum MFI [MFI]	Binder
0.995	823000	B1
1.81	981000	B2
0.663	531000	B3
1.24	824000	B4
0.941	723000	B5
1.04	837000	B6

biological target: T1, human B7-H7 on the cell surface; assay: flow cytometry, HCC827 cells
Procedure: as §1

EC50 [nM]	Maximum MFI [MFI]	Binder
0.00294	68800	B1
0.0399	68600	B2
0.0477	49300	B3
0.0903	51800	B4
0.0445	60100	B5
	69400	B6

biological target: T4, cynomolgus monkey B7-H7 on the cell surface (cynomolgus monkey); assay: flow cytometry, HEK-293/cyno B7-H7 cells
T4 construct: whole, on cells; also called cyno B7-H7
Procedure: as §1

EC50 [nM]	Maximum MFI [MFI]	Binder
0.399	405000	B1
8.51	698000	B2
0.211	170000	B3
0.711	451000	B4
0.326	275000	B5
0.429	414000	B6

biological target: T2, human B7-H7 recombinant protein; assay: BLI (Octet), antibody captured on AHC sensor, human B7-H7 in solution, 1:1 global fit
Procedure: The binding kinetics between antigen and antibody was analyzed using an Octet Red 96e (Fortebio) molecular interaction analyzer by biolayer interferometry (BLI) technology.
For determining the affinity of antibodies for antigens, the rotary speed of the sensor was set at 1000 rpm. AHC sensors (Fortebio, #18-5060) placed in one column were first equilibrated in a test buffer for 10 minutes, and then used to capture the anti-B7-H7 antibodies at a capture height of 0.7 nm; and after being equilibrated in the buffer for 120 s, the AHC sensors bound to human B7-H7 (concentrations: 50-3.125 nM and 0 nM) with 2-fold gradient dilution for 180 s and dissociated for 300 s. The AHC sensors were finally regenerated by immersing in a 10 mM glycine-hydrochloric acid solution with pH 1.5 to elute the protein bound to the sensors.
For data analysis using Octet Data Analysis software (Fortebio, version 11.0), 0 nM well was used as the reference well, reference subtraction was performed, “1:1 Global fitting” method was selected for data fitting, the kinetic parameters of the binding of the antigen to the antigen-binding protein were calculated, and the kₒₙ (1/Ms) value, kdis (1/s) value and KD (M) value were obtained.

Kd [nM]	koff [s⁻¹]	kon [M⁻¹ s⁻¹]	Binder
2.91	0.000271	93200	B1
1.6	0.00014	88000	B2
9.93	0.000648	65200	B3
0.595	2.93e-05	49300	B4
4.6	0.000336	73000	B5
1.06	0.000132	125000	B6

biological target: T3, biotinylated human B7-H7 protein (Acro …); assay: BLI epitope competition on SA-captured biotinylated B7-H7; competitor (first antibody) PR003249
Procedure: Epitope competition experiments were performed on the anti-B7-H7 antibodies using the ForteBio Octet Red96e platform with the same experimental buffer as described above. […] After being equilibrated in a buffer for 120 s, the sensors were immersed in various antibodies diluted to 100 nM for 240 s, and the final signal of the antibody binding to B7-H7 was recorded as the 100% signal for that antibody. Second step, epitope competition experiment: B7-H7 was captured using SA sensors at a capture height of 0.25 nm. The sensors were immersed in a first antibody (concentration: 100 nM) for 240 s, then the SA sensors were immersed in a mixture of the first antibody and a second antibody (final concentration of both antibodies: 100 nM) for 240 s, and the difference in signals before and after immersing the sensors in the mixture of the two antibodies was recorded as the signal for that antibody as the second antibody. The inhibition rate was calculated by the following equation, […]

Competitive inhibition rate (%)	Binder
103	B1
108	B2
107	B3
106	B4
111	B5
107	B6

biological target: T3, biotinylated human B7-H7 protein (Acro …); assay: flow cytometry, blocking of biotinylated human B7-H7 binding to HEK-293/CD28H cells
Procedure: This example was intended to study the in vitro blocking activity of human anti-B7-H7 antibodies against the binding of human B7-H7 to its receptor CD28H. […] The cells were adjusted to a cell density of 1×10⁶ cells/mL. […] The cells were incubated at 4° C. for 1 hour in the dark. […] The cells were rinsed twice by adding pre-chilled PBS containing 2% BSA at 100 μL/well, and were centrifuged at 500 g at 4° C. for 5 minutes, and the supernatant was discarded. A fluorescent secondary antibody (PE Streptavidin, BD, Cat #: 554061, 1:200) was added at 100 μL/well, and the cells were incubated at 4° C. for 30 minutes in the dark. The cells were washed twice by adding pre-chilled PBS at 200 μL/well, and centrifuged at 500 g at 4° C. for 5 minutes, and the supernatant was discarded. Finally, the cells were resuspended in pre-chilled PBS at 200 μL/well, and the fluorescence signal values were read using an ACEA Novocyte3000 flow cytometer. IC50 was calculated.

IC50 [nM]	Maximum inhibition rate (%)	Binder
1.41	101	B1
1.87	101	B2
1.57	101	B3
1.39	102	B4
1.49	100	B5
1.43	101	B6

biological target: T1, human B7-H7 on the cell surface; assay: flow cytometry on LS180 cells, expression supernatant diluted 1:1, 1:10, 1:100

binding result	Binder
binds	B7

biological target: T3, biotinylated human B7-H7 protein (Acro …); assay: flow cytometry, blocking of biotinylated human B7-H7 binding to CHO-K1/KIR3DL3 cells
From the text: This example was intended to study the in vitro blocking activity of human anti-B7-H7 antibodies against the binding of human B7-H7 to its receptor KIR3DL3. A CHO-K1 cell (CHO-K1/KIR3DL3, Harbour BioMed US, Inc.) overexpressing human KIR3DL3 was used in experiments at the cellular level where human B7-H7/human KIR3DL3 binding was blocked. Briefly, the CHO-K1/KIR3DL3 cells were digested and resuspended in PBS containing 2% BSA. The cells were adjusted to a cell density of 1×10⁶ cells/mL. […] The cells were incubated at 4° C. for 1 hour in the dark. […] The cells were rinsed twice by adding pre-chilled PBS containing 2% BSA at 100 μL/well, and were centrifuged at 500 g at 4° C. for 5 minutes, and the supernatant was discarded. A fluorescent secondary antibody (PE Streptavidin, BD, Cat #: 554061, 1:200) was added at 100 μL/well, and the cells were incubated at 4° C. for 30 minutes in the dark. The cells were washed twice by adding pre-chilled PBS at 200 µL/well, and centrifuged at 500 g at 4° C. for 5 minutes, and the supernatant was discarded. Finally, the cells were resuspended in pre-chilled PBS at 200 μL/well, and the fluorescence signal values were read using an ACEA Novocyte3000 flow cytometer. IC50 was calculated.

IC50 [nM]	Maximum inhibition rate (%)	Binder
8.49	97.2	B1
12.9	99.3	B2
8.55	102	B3
7.04	101	B4
7.5	105	B5
7.59	97.1	B6
